From PMC7457226 (Developmental cell, 2019)

Assays:
Rab11 (Homo sapiens) = Rab11 (Homo sapiens) (UniProt P62491); conditions: cited from earlier work
WDR44 334-435 (human) = WDR44 334-435 (human) (UniProt Q5JSH3); assay: ITC
[1] = target: Rab11Q70L 6-186-WDR44 334-435 complex (human) (UniProt P62491); assay: ITC
SEC = target: the molecule itself; assay: SEC

Rabin8, sequence (Q96QF0 whole entry): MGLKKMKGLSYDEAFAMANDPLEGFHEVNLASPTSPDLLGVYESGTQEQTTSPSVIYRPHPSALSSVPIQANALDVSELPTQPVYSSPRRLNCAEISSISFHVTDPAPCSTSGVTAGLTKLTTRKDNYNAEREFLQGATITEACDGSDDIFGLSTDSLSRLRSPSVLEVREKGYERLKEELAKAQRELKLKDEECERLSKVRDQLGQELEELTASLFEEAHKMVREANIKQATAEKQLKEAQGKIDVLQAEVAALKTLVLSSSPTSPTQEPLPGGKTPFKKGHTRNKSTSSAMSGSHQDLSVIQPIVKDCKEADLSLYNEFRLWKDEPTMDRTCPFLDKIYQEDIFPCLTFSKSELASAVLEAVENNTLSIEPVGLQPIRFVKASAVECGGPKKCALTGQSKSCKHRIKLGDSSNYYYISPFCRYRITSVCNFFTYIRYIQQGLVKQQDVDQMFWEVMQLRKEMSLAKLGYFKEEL
Rab11 (Homo sapiens), sequence (P62491 2-213): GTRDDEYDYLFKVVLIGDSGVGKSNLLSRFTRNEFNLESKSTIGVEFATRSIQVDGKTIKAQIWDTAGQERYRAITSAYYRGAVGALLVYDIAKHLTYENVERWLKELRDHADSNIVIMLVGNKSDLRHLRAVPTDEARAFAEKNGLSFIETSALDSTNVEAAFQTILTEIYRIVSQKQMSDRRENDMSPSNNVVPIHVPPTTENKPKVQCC
WDR44 334-435 (human), sequence (Q5JSH3 334-435): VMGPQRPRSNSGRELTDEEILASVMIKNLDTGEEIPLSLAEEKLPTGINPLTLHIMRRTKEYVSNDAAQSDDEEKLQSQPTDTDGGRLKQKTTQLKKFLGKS

| Molecule | binding result (SEC) | further results |
| --- | --- | --- |
| Rabin8 (from UniProt Q96QF0) |  | Kd (Rab11 (Homo sapiens)): 40 µM |
| Rab11Q70L 6-186 (calorimetry) (from UniProt P62491 6-186) (domain or fragment) |  | Kd (WDR44 334-435 (human)): 0.54 µM |
| Rabin8C (residues 270-460) (domain or fragment) NKSTSSAMSGSHQDLSVIQPIVKDCKEADLSLYNEFRLWKDEPTMDRTCPFLDKIYQEDIFPCLTFSKSELASAVLEAVENNTLSIEPVGLQPIRFVKASAVECGGPKKCALTGQSKSCKHRIKLGDSSNYYYISPFCRYRITSVCNFFTYIRYIQQGLVKQQDVDQMFWEVMQLRKEMSLAKLGYFKEEL |  | Kd [1]: 37.2 µM |
| Rabin8 144-C (domain or fragment, human, UniProt Q96QF0-2 144-460, looked up) RLRSPSVLEVREKGYERLKEELAKAQRELKLKDEECERLSKVRDQLGQELEELTASLFEEAHKMVREANIKQATAEKQLKEAQGKIDVLQAEVAALKTLVLSSSPTSPTQEPLPGGKTPFKKGHTRNKSTSSAMSGSHQDLSVIQPIVKDCKEADLSLYNEFRLWKDEPTMDRTCPFLDKIYQEDIFPCLTFSKSELASAVLEAVENNTLSIEPVGLQPIRFVKASAVECGGPKKCALTGQSKSCKHRIKLGDSSNYYYISPFCRYRITSVCNFFTYIRYIQQGLVKQQDVDQMFWEVMQLRKEMSLAKLGYFKEEL | binds |  |
| Rabin8 144-C S147A/S149A (domain or fragment, human, UniProt Q96QF0-2 144-460, looked up) RLRAPAVLEVREKGYERLKEELAKAQRELKLKDEECERLSKVRDQLGQELEELTASLFEEAHKMVREANIKQATAEKQLKEAQGKIDVLQAEVAALKTLVLSSSPTSPTQEPLPGGKTPFKKGHTRNKSTSSAMSGSHQDLSVIQPIVKDCKEADLSLYNEFRLWKDEPTMDRTCPFLDKIYQEDIFPCLTFSKSELASAVLEAVENNTLSIEPVGLQPIRFVKASAVECGGPKKCALTGQSKSCKHRIKLGDSSNYYYISPFCRYRITSVCNFFTYIRYIQQGLVKQQDVDQMFWEVMQLRKEMSLAKLGYFKEEL | binds |  |
| Rabin8 144-C S147D/S149D (domain or fragment, human, UniProt Q96QF0-2 144-460, looked up) RLRDPDVLEVREKGYERLKEELAKAQRELKLKDEECERLSKVRDQLGQELEELTASLFEEAHKMVREANIKQATAEKQLKEAQGKIDVLQAEVAALKTLVLSSSPTSPTQEPLPGGKTPFKKGHTRNKSTSSAMSGSHQDLSVIQPIVKDCKEADLSLYNEFRLWKDEPTMDRTCPFLDKIYQEDIFPCLTFSKSELASAVLEAVENNTLSIEPVGLQPIRFVKASAVECGGPKKCALTGQSKSCKHRIKLGDSSNYYYISPFCRYRITSVCNFFTYIRYIQQGLVKQQDVDQMFWEVMQLRKEMSLAKLGYFKEEL | binds |  |
